Patent US20190062383A1

What was measured:
[1] = biological target: human Kv1.3 (human) (UniProt P22001); assay: cell-based or functional assay
[2] = biological target: human Kv1.1 (human) (UniProt Q09470)
[3] = biological target: human Kv1.3 (human) (UniProt P22001)
[4] = biological target: human Kv1.1 (human) (UniProt Q09470); assay: cell-based or functional assay

human Kv1.3 (human), sequence (P22001 whole entry): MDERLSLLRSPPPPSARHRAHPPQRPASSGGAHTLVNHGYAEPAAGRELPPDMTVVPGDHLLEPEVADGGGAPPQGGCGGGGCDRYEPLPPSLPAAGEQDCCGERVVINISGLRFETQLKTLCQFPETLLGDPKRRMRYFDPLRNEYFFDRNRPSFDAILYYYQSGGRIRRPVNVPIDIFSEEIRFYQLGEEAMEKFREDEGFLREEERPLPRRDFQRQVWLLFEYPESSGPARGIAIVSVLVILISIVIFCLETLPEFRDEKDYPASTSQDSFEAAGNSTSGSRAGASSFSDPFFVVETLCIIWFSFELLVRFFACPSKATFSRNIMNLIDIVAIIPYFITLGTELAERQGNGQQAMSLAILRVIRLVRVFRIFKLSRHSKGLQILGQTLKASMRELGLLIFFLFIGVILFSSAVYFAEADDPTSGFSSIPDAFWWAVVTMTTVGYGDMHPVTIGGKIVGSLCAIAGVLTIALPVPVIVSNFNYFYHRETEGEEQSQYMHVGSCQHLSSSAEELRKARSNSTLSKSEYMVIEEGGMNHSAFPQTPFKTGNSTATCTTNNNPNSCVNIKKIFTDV
human Kv1.1 (human), sequence (Q09470 whole entry): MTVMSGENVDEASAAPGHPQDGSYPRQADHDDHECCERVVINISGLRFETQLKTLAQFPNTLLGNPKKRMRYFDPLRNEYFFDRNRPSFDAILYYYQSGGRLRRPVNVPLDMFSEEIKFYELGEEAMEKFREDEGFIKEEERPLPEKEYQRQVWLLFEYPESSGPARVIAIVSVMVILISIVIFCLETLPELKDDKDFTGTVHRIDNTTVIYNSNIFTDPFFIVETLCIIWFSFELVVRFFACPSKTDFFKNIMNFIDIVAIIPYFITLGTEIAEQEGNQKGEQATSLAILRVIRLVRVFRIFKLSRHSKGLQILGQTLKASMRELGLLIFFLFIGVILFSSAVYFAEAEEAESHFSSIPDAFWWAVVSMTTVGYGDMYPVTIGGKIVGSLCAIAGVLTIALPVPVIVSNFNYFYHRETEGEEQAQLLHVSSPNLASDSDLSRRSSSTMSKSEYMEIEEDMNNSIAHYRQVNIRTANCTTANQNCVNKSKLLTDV

Row | Substance | Kv1.3 IC50, whole-cell patch clamp [1] | thallium flux KV1.1 IC50 [2] | Kv1.1 IC50, whole-cell patch clamp [4] | also measured
1 | wild type OdK2 peptide | 0.1 nM |  |  | 
2 | KV1C2 (OdK2-Fc fusion) |  | > 1000 nM |  | 
3 | KV1N2 (OsK1-Fc fusion) |  | 0.1 nM | 2 nM | thallium flux KV1.3 IC50 [3]: 0.03 nM; Kv1.1 IC50, patch clamp [4]: 2 nM; Kv1.3 IC50, patch clamp [1]: 0.3 nM
4 | wild type OsK1 peptide | 0.01 nM |  | 0.21 nM | CD4+ T cell inhibition IC50 [1]: 0.03 nM; CD8+ T cell inhibition IC50 [1]: 0.03 nM
